Assay results reported in article PMC9474862.

Target: APE1 WT (Homo sapiens) (UniProt P27695)
Assay: EMSA
Settings: apparent Kd, 1 mM EDTA, EMSA: 20 nM NCP, 10 mM HEPES pH 7.5, 25 mM NaCl, 1 mM DTT, 0.1 mg/mL BSA, 5% native PAGE, 0.2x TBE, 4 °C (gel), binding temperature not stated

UniProt P27695, sequence (P27695 whole entry): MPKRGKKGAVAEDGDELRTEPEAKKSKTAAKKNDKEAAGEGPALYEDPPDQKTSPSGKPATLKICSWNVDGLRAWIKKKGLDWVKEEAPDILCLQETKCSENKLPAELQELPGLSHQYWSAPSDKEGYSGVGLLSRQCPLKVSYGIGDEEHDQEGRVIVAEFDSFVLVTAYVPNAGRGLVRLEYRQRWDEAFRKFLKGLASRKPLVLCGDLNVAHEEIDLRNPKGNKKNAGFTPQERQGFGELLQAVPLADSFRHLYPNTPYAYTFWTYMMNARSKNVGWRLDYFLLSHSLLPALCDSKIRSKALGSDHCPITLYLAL

“ATCGAGAATCCCGGTGCCGAGGCCGCTCAATTGGTCGTAGACAGCTCTAGCACCGCTTAAACGCACGTACGCNCTGTCCCCCGCGTTTTAACCGCCAAGGGGATTACTCCCTAGTCTCCAGGCACGTGTCAGATATATACATCCGAT / ATCGGATGTATATATCTGACACGTGCCTGGAGACTAGGGAGTAATCCCCTTGGCGGTTAAAACGCGGGGGACAGCGCGTACGTGCGTTTAAGCGGTGCTAGAGCTGTCTACGACCAATTGAGCGGCCTCGGCACCGGGATTCTCGAT [AP-NCP0]” was tested, and the Kd (one-site fit with ligand depletion, N in strand 1 = THF (AP site analog) at SHL0 (dyad), occluded) was 20 nM.
In the case of “ATCGAGAATCCCGGTGCCGAGGCCGCTCAATTGGTCGTAGACAGCTCTAGCACCGCTTAAACGCACGTACGCGCTGTCCCCCGCGTTTTAACCGCCAAGGGGATTACTCCCTAGTCTCCAGGCACGTGTCAGATATATACATCCGAT (double strand) [ND-NCP]”, the Kd (nonspecific binding, no AP site) is reported as 71 nM.
“ATCGAGAATCCCGGTGCCGAGGCCGCTCAATTGGTCGTAGACAGCTCTAGCACCGCTTAAACGCACGTACGCGCTGTCCCCCGCGTTTTAACCGCCAAGGGGATTACTCCCTAGTCTCCAGGCACGTGTCAGATATATACATNCGAT / ATCGGATGTATATATCTGACACGTGCCTGGAGACTAGGGAGTAATCCCCTTGGCGGTTAAAACGCGGGGGACAGCGCGTACGTGCGTTTAAGCGGTGCTAGAGCTGTCTACGACCAATTGAGCGGCCTCGGCACCGGGATTCTCGAT [AP-NCP-6.5]” showed a Kd (one-site fit with ligand depletion, N in strand 1 = THF (AP site analog) at SHL-6.5, occluded) of 20 nM.
In the case of “ATCGAGAATCCCGGTGCCGAGGCCGCTCAATTGGTCGTAGACAGCTCTAGCACCGCTTAAACGCACGTACGCGCTGTCCCCCGCGTTTTAACCGCCAAGGGGATTACTCCCTAGTCTCCAGGCACGTGTCAGATATATNCATCCGAT / ATCGGATGTATATATCTGACACGTGCCTGGAGACTAGGGAGTAATCCCCTTGGCGGTTAAAACGCGGGGGACAGCGCGTACGTGCGTTTAAGCGGTGCTAGAGCTGTCTACGACCAATTGAGCGGCCTCGGCACCGGGATTCTCGAT [AP-NCP-6]”, the Kd (one-site fit with ligand depletion, N in strand 1 = THF (AP site analog) at SHL-6, solvent-exposed) is reported as 17 nM.
